This is an account of results in a protein production outcome set (Wang et al. 2014).

The data set can be described thus: label from the status in PepcDB records.
“CTFKSVADEWVKTKTKLKPKTVQGNWRKLELYAFPKFGEIPVKSLTPIIVQEAFRPIARRGKLETVKRTIQLVNEIMRFAINSGLIQHNVLSGVG”: the protein production entry was “failed”.
As for “MMIKASTNEFRFCFKQMNKSQHELVLGWIHQPHINEWLHGDGLSNTIKDLHEFLNDGKPWATHWIAYDNEIPFAYLITSEIEKSEEYPDGAVTLDLFICRLDYIGKGLSVQMIHEFILSQFSDTKIVLINPEISNERAVHVYKKAGFEIIGEFIASWHPVPHYKMKLCIEDLKKQRLSA”, the protein production entry was “not failed”.
As for “MGIIDRRRRRAVLVVAVVAAVLIFVADALSPIDGAVAVLYTGVVLMVAPLGRKFIVVAGYISAVLALTAFLWGHASDLVGGALLRLVVSLVAILITVLLSMRDRSARISLAEQVRILEASHDTVIIRDSAGIVRYWNEGAERLYGRSRDQAIGRHYAELFDESAPVDEIDRSMREAGSWSGEVVRTRRDGARLILASRWLQRRDPEGRAIGVIEASADLTESRRAQAEQRRSERRYSTIFNSAGFAALECDLSDALSLVLSAGADVAASLRADPALLAAAVERIVICEANPAALEMFDADGPGELIVAELLAFSIPDARQALETIFVALTTGSTQIETETRFITRRGRTIDAVLRLSVLPDGTDWSRVLLMAVDVTERNEARTKIERISAELAHAGRVSVLGQLAASIAHEVNQPLAAIINYGKSGKRWLVRPTSDIGEVAECLDKIVSNANRAAEVVGRVRFLARKSAPLTDSVDLVVMLQDAIELLRREIHSVKATVRVELSTPIAMIDCDRVQVQQVFVNLLMNALQAMRGIDGHRQILVRIEDSGDSLTVAVCDTGVGIAGDPARIFEPFFSTKSDGMGLGLSICRTIIEGQGGQILASNNDGPGATVAFTLLRNNPDEGRHNRRLIS”, the protein production entry is on record as “failed”.
“MKQNLVAVDILLNQMRDRNIKLDSFVVSAIIETNCDRCRTEGASLAFDYSLEMGIHLKKSAYLALIGNFLRSNELPKVIEVVKEMVKAQHSLGCYQGAMLIHRLGFGRRPRLAADVFDLLPDDQKGVAAYTALMDVYISAGSPEKAMKILREMREREIMPSLGTYDVLLSGLEKTSDFQKEVALLRKEKKSLVASARFRENVHVEDKICDLLFATNLL”: the protein production entry was “failed”.
On to “MIELLFPGWLAGILLAIAAGPLGSFVVWRRMSYFGDTLAHASLLGVAFGLLLNINLFSAVIAVTLILALGLVWLERRPYLAVDTLLGIMAHSALSLGLVVVSLMNNVRVDLMAYLFGDLLSVTTEDLWVIGAGVIIVVAVMRWQWRALLSMTISPELAHVDGVKIQRTKLLLMLTTALTIGIAMKFVGALIITSLLIIPAASARRFARTPEQMAIIAVMIGMIAVTGGLAFSAGYNTPAGPSVVLCASLLFIVSLLKPQPA”, for which the protein production result is recorded as “failed”.
For “MNMKFTKILVQIAALYVFYMVGTWVQEMLNIPIPGSLIGMFLLLVLLSLKVLPVKWFDLGAETLVAIMPFLLIPPTLGLMNYGAFFMSKGISLFITVVASTFLIIIVAGHTGQYLANRKERESR”, the protein production entry was “failed”.
On to “MTYRAEVDGLRAIAVTLVILFHSGVEQFAGGFIGVDVFFVISGYLITTIVINDLENQKFSLGDFYERRIRRILPLLLVVIAVSYLMSWWLFLPQAHKDVGQLAVSSILSSSNILLYLKGHNYFGLEDQANPLFHTWSLGVEEQYYIVIPLLLMLLARGKNAFYLTFFIAVFALSLMAIVYTSNDPDFAFYMIFSRAWELATGSLLALVMRKAQVQSNDTLATIGIVLILASALLFEKSQDGAGITLLVPVIGSALVILFASKDNVCGKLLSLKWVVFVGLISYSLYLWHIPLFVFYRYMLDATQDVNISLYIAALFVLSYFTWRFVEKPFRSRKAMSMRTVSAVVVLLTLPLLTFGVIGHQNGGFPERSAFFEAMRINNGYGLDCNGNTDVNDVCSSAPQPTIAVLGNSHSMVYVKRLSEVTPTGVVQLTQDSCAVGYVDILEAAGSISCRQFFKQAVDTILRTPSIRRVVISSNFNKELSQADYEASLTGLLNELEGKEVVVFGPTPSAPFAVGECLWKARLFGEQEESVCDFSPKRHHPQNVAKLVNYFDRFEHVEFVDLTDAICRNGVCRMKVGANNAMYTDDSHLSYKGAELVLGHYHNSTNETQQFTYDRQ”, for which the protein production result is listed as “failed”.
Turning to “MFADISAQHWAFAIYVIGAIAICLTMIGLAALLGGRAQGRTKNKPFESGVDSVGTARLRFSAKFYLVAMFFVIFDVEALYLFAWSVSVRESGWVGFIEATIFIGLLLIGLVYLWRIGALEWSPRKPQLNNKNTD”, the protein production entry is “failed”.
In the case of “MAAAPASDVCGGGSKKNCSGRRMSDAAPPVSSPPPRQKGLLGVVERLGNLLPEPVMIFVWLILGLMVLSAIGQALGWSASITYAGDEAPQFGELENGVLTYAASSLFSEANLARLFTEMPKTLTSFAPLGLVLVVILGAAVAERSGLFSALIRASLREAPKRILTPLVVIIGMVSHHASDAAYVVFIPLAGLLYAAVGRHPLAGIAAGFAAVSGGFAGNLTPGQFDVVLFGFTQEAARIIDPTWTMNPLGNWWYILAIVVVFTPIAWFLTDKVVEPRLGPWGGQADDALKAELAKSAVTADEKRGLKFAGLAALAIVALFAALSLIPGFTPLIDETKTGPAQLTPFYGALIAGFMMLFLAGGVAYGVGVGTVKTEGDVVNMMADGVRSVAPYIVFAFFAAHFVAMFNWSRLGPIAAIHGAETLKAMNLPAPLLLVSVLGFSSVLDLFIGSASAKWSALAPVVVPMFMLLGISPEMTTAAYRMGDSFTNLMTPLMSYFPLVLAMTRRWDPSMGVGSLLALMLPYALAFMVAGVAMTLAWVAFDWPLGPAAQVHYTPPGGLLK”, the protein production entry was “failed”.
With “MTTFLQRDDFAVTARVLGALFYYSPESHETAPLVQALLNDDWQAQWPLDAEALAPVAAMFKTHSEESLPQAWQRLFIGPYALPSPPWGSVWLDRESVLFGDSTLALRQWMRENGIQFEMQQNEPEDHFGSLLLLAAWLAENDRHHECEQLLAWHLFPWSSRFLDVFIDHAGHPFYQALGQLARLTLAQWQAQLIIPVAVKPLFR”, the protein production result is reported as “not failed”.
Turning to “MVSRIPTGNRGQGNGIEQSASSHATEATPWLGVNLPYGHWLPSSARSVVSRASSLLGGLANFRWGGRPASARPAPNIRSAAIAPAQQTLPPELWQQIATLAGARPRRAMREVSLELRNASRAVVTHLTISDPAMFRQLSLYPALKSVRFKGELTLEALKALPPELEHLEIGRCTGSAISAEGLAHLASMPLKSLNLNGIEIGVEGARTLAASKSLVSLSLIGCGIGDRAAQALVASRSIQCLDLSVNRIGRDGAQALAGAPLVSLNLHNNEIGNEGARVLATSRTLTSLDVSNNGVGNAGAEAFAGNTVLKQLSLAGGMISGDGAQALADNKSLTDLDLSNNRLGDAGAQALADSESFVSLKLGGNEIGADGAEALARNVVLQSLNLSYNPIGFWGVNALGRAKLRKLDLCACAIDSDGASALARNTSLASLYLGSNRIGDDGARALAKNSTLTLLNLSGNNIHAVGAQALASNDSLITLDLSRNGIGDDGTAALACHPRLTSLNLSRNQIGSTGAQQLAKSATLAELDLSENRIGPEGAEALARSTVLTTLNVSYNAIGEAGARALAESVSLTSLDARRNGIGEDGAKVLEANTRITGTPQNPNFLAEDVPRPDVRWRD”, the protein production entry is recorded as “failed”.
As to “MRYGRTVPVTEAAELPPAPEQAREVFGDRFADAVRYAELLAEAGVQRGLIGPREVPRLWERHLLNCAVLSEVVPEGVTVCDVGSGAGLPGIPLALVREDLKITLLEPLLRRTNFLTEVVELLGLDHVTVIRGRAEEVMGKIPPVHVVTARAVAPLDRLATWGIPLLRPYGEMLALKGDTAEEELKSAATALSKLGAVETSVLHVGEGVVDPLSTVVRVEVGESPGGVRFAAKRAKAARTGRTRRRR”, the protein production entry is “failed”.
Turning to “MQRCLRIQVARRHKLRNGKILDLGQQPTAPLLSLYLSTAQSRVISNEEPASISWSCAEAGSALGLSSASGSAEEAEPWPGVRRGTEAGQYEFARAGEAAAAVRAAAAVAVARAGMRRYLRVVGLCLACGFCSLLYAFSQLAVSLEEGAAVGRRPQAAVASWLADGGRGTGRGAGSAGPGRTGRCKEVSLSYWNPYWMLPSDVCGVNCFWEAAFRYGLKTRPTEKMHLAVVACGDRLEETVTMLKSALIFSIKPLHVHIFAEDQLHDSFKDRLDSWSFLQRFNYSLYPITFPSDSAMEWKKLFKPCASQRLFLPLILKGVDSLLYVDTDVLFLRPVDDIWSLLERFNSTQIAAMAPEHEEPRVGWYNRFARHPYYGRTGVNSGVMLMNMTRMRRKYFKNDMTTARLQWGDILMPLLKKYKLNITWGDQDLLNIMFYHNPESLFVFPCQWNYRPDHCIYGSNCREAEEEGVFILHGNRGVYHDDKQPAFRAMYEALRNCSLEDDSVRSLLKPLELELQKTVHTYCGKTYKIFIKQLAKSIRNRYDTPPKER”, the protein production result is recorded as “failed”.
